# Target: fibrillar amyloid-beta (UniProt P05067)
# Test: SPR
# UniProt P05067, sequence (P05067 672-713): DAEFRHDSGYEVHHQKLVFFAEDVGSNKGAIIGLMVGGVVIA
substance,measurement,value
Galectin-3 (from UniProt P17931 1-250) (natural protein),Kd,9 nM

# — article doi:10.1101/2025.03.17.643790
